Measurements from publication PMC7367873, “Dissecting the sequence determinants for dephosphorylation by the catalytic subunits of phosphatases PP1 and PP2A” (Nature Communications, 2020).
Values belong to the molecule of their own block, whether it stands above or below them.

Assays:
GFP-14-3-3β = GFP-14-3-3β co-IP with LC-MS/MS, untreated GFP-14-3-3β versus GFP control (14-3-3 interactome); assay type: binding, human; conditions: log2 difference; pairwise comparison untreated vs GFP, label-free quantification, 3 replicates each
[1] = tested on: GFP-14-3-3β and its binding proteins; assay: GFP-14-3-3β co-IP with LC-MS/MS label-free quantification, untreated versus PP1c-treated; design: species or system human; conditions: log2 difference; pairwise comparison PP1 vs untreated, label-free quantification, 3 replicates each

B3: DHX30 (protein, UniProt Q7L2E3 1-1194, looked up)
ATP-dependent RNA helicase …: MFSLDSFRKDRAQHRQRQCKLPPPRLPPMCVNPTPGGTISRASRDLLKEFPQPKNLLNSVIGRALGISHAKDKLVYVHTNGPKKKKVTLHIKWPKSVEVEGYGSKKIDAERQAAAAACQLFKGWGLLGPRNELFDAAKYRVLADRFGSPADSWWRPEPTMPPTSWRQLNPESIRPGGPGGLSRSLGREEEEDEEEELEEGTIDVTDFLSMTQQDSHAPLRDSRGSSFEMTDDDSAIRALTQFPLPKNLLAKVIQIATSSSTAKNLMQFHTVGTKTKLSTLTLLWPCPMTFVAKGRRKAEAENKAAALACKKLKSLGLVDRNNEPLTHAMYNLASLRELGETQRRPCTIQVPEPILRKIETFLNHYPVESSWIAPELRLQSDDILPLGKDSGPLSDPITGKPYVPLLEAEEVRLSQSLLELWRRRGPVWQEAPQLPVDPHRDTILNAIEQHPVVVISGDTGCGKTTRIPQLLLERYVTEGRGARCNVIITQPRRISAVSVAQRVSHELGPSLRRNVGFQVRLESKPPSRGGALLFCTVGILLRKLQSNPSLEGVSHVIVDEVHERDVNTDFLLILLKGLQRLNPALRLVLMSATGDNERFSRYFGGCPVIKVPGFMYPVKEHYLEDILAKLGKHQYLHRHRHHESEDECALDLDLVTDLVLHIDARGEPGGILCFLPGWQEIKGVQQRLQEALGMHESKYLILPVHSNIPMMDQKAIFQQPPVGVRKIVLATNIAETSITINDIVHVVDSGLHKEERYDLKTKVSCLETVWVSRANVIQRRGRAGRCQSGFAYHLFPRSRLEKMVPFQVPEILRTPLENLVLQAKIHMPEKTAVEFLSKAVDSPNIKAVDEAVILLQEIGVLDQREYLTTLGQRLAHISTDPRLAKAIVLAAIFRCLHPLLVVVSCLTRDPFSSSLQNRAEVDKVKALLSHDSGSDHLAFVRAVAGWEEVLRWQDRSSRENYLEENLLYAPSLRFIHGLIKQFSENIYEAFLVGKPSDCTLASAQCNEYSEEEELVKGVLMAGLYPNLIQVRQGKVTRQGKFKPNSVTYRTKSGNILLHKSTINREATRLRSRWLTYFMAVKSNGSVFVRDSSQVHPLAVLLLTDGDVHIRDDGRRATISLSDSDLLRLEGDSRTVRLLKELRRALGRMVERSLRSELAALPPSVQEEHGQLLALLAELLRGPCGSFDVRKTADD
Difference (log2), untreated vs GFP (GFP-14-3-3β): 0.9044
Difference (log2), PP1 vs untreated [1]: 1.371

B4: P4HA1 (protein, UniProt P13674 18-534, looked up)
Prolyl 4-hydroxylase subunit …: HPGFFTSIGQMTDLIHTEKDLVTSLKDYIKAEEDKLEQIKKWAEKLDRLTSTATKDPEGFVGHPVNAFKLMKRLNTEWSELENLVLKDMSDGFISNLTIQRQYFPNDEDQVGAAKALLRLQDTYNLDTDTISKGNLPGVKHKSFLTAEDCFELGKVAYTEADYYHTELWMEQALRQLDEGEISTIDKVSVLDYLSYAVYQQGDLDKALLLTKKLLELDPEHQRANGNLKYFEYIMAKEKDVNKSASDDQSDQKTTPKKKGVAVDYLPERQKYEMLCRGEGIKMTPRRQKKLFCRYHDGNRNPKFILAPAKQEDEWDKPRIIRFHDIISDAEIEIVKDLAKPRLRRATISNPITGDLETVHYRISKSAWLSGYENPVVSRINMRIQDLTGLDVSTAEELQVANYGVGGQYEPHFDFARKDEPDAFKELGTGNRIATWLFYMSDVSAGGATVFPEVGASVWPKKGTAVFWYNLFASGEGDYSTRHAACPVLVGNKWVSNKWLHERGQEFRRPCTLSELE
Difference (log2), untreated vs GFP (GFP-14-3-3β): -0.8349
Difference (log2), PP1 vs untreated [1]: 1.3164

B7: CAPRIN1 (protein, UniProt Q14444 2-709, looked up)
Caprin-1: PSATSHSGSGSKSSGPPPPSGSSGSEAAAGAGAAAPASQHPATGTGAVQTEAMKQILGVIDKKLRNLEKKKGKLDDYQERMNKGERLNQDQLDAVSKYQEVTNNLEFAKELQRSFMALSQDIQKTIKKTARREQLMREEAEQKRLKTVLELQYVLDKLGDDEVRTDLKQGLNGVPILSEEELSLLDEFYKLVDPERDMSLRLNEQYEHASIHLWDLLEGKEKPVCGTTYKVLKEIVERVFQSNYFDSTHNHQNGLCEEEEAASAPAVEDQVPEAEPEPAEEYTEQSEVESTEYVNRQFMAETQFTSGEKEQVDEWTVETVEVVNSLQQQPQAASPSVPEPHSLTPVAQADPLVRRQRVQDLMAQMQGPYNFIQDSMLDFENQTLDPAIVSAQPMNPTQNMDMPQLVCPPVHSESRLAQPNQVPVQPEATQVPLVSSTSEGYTASQPLYQPSHATEQRPQKEPIDQIQATISLNTDQTTASSSLPAASQPQVFQAGTSKPLHSSGINVNAAPFQSMQTVFNMNAPVPPVNEPETLKQQNQYQASYNQSFSSQPHQVEQTELQQEQLQTVVGTYHGSPDQSHQVTGNHQQPPQQNTGFPRSNQPYYNSRGVSRGGSRGARGLMNGYRGPANGFRGGYDGYRPSFSNTPNSGYTQSQFSAPRDYSGYQRDGYQQNFKRGSGQSGPRGAPRGRGGPPRPNRGMPQMNTQQVN
Difference (log2), untreated vs GFP (GFP-14-3-3β): -0.3406
Difference (log2), PP1 vs untreated [1]: 1.323

Second part, led by results:

Difference (log2), PP1 vs untreated [1]: 1.284
B1: STT3B (protein, UniProt Q8TCJ2 2-826, looked up)
Dolichyl-diphosphooligosacchar …: AEPSAPESKHKSSLNSSPWSGLMALGNSRHGHHGPGAQCAHKAAGGAAPPKPAPAGLSGGLSQPAGWQSLLSFTILFLAWLAGFSSRLFAVIRFESIIHEFDPWFNYRSTHHLASHGFYEFLNWFDERAWYPLGRIVGGTVYPGLMITAGLIHWILNTLNITVHIRDVCVFLAPTFSGLTSISTFLLTRELWNQGAGLLAACFIAIVPGYISRSVAGSFDNEGIAIFALQFTYYLWVKSVKTGSVFWTMCCCLSYFYMVSAWGGYVFIINLIPLHVFVLLLMQRYSKRVYIAYSTFYIVGLILSMQIPFVGFQPIRTSEHMAAAGVFALLQAYAFLQYLRDRLTKQEFQTLFFLGVSLAAGAVFLSVIYLTYTGYIAPWSGRFYSLWDTGYAKIHIPIIASVSEHQPTTWVSFFFDLHILVCTFPAGLWFCIKNINDERVFVALYAISAVYFAGVMVRLMLTLTPVVCMLSAIAFSNVFEHYLGDDMKRENPPVEDSSDEDDKRNQGNLYDKAGKVRKHATEQEKTEEGLGPNIKSIVTMLMLMLLMMFAVHCTWVTSNAYSSPSVVLASYNHDGTRNILDDFREAYFWLRQNTDEHARVMSWWDYGYQIAGMANRTTLVDNNTWNNSHIALVGKAMSSNETAAYKIMRTLDVDYVLVIFGGVIGYSGDDINKFLWMVRIAEGEHPKDIRESDYFTPQGEFRVDKAGSPTLLNCLMYKMSYYRFGEMQLDFRTPPGFDRTRNAEIGNKDIKFKHLEEAFTSEHWLVRIYKVKAPDNRETLDHKPRVTNIFPKQKYLSKKTTKRKRGYIKNKLVFKKGKKISKKTV
Difference (log2), untreated vs GFP (GFP-14-3-3β): -0.7683

Difference (log2), PP1 vs untreated [1]: 1.312
B2: MAP7 (protein, UniProt Q14244 2-749, looked up)
Ensconsin: AELGAGGDGHRGGDGAVRSETAPDSYKVQDKKNASSRPASAISGQNNNHSGNKPDPPPVLRVDDRQRLARERREEREKQLAAREIVWLEREERARQHYEKHLEERKKRLEEQRQKEERRRAAVEEKRRQRLEEDKERHEAVVRRTMERSQKPKQKHNRWSWGGSLHGSPSIHSADPDRRSVSTMNLSKYVDPVISKRLSSSSATLLNSPDRARRLQLSPWESSVVNRLLTPTHSFLARSKSTAALSGEAASCSPIIMPYKAAHSRNSMDRPKLFVTPPEGSSRRRIIHGTASYKKERERENVLFLTSGTRRAVSPSNPKARQPARSRLWLPSKSLPHLPGTPRPTSSLPPGSVKAAPAQVRPPSPGNIRPVKREVKVEPEKKDPEKEPQKVANEPSLKGRAPLVKVEEATVEERTPAEPEVGPAAPAMAPAPASAPAPASAPAPAPVPTPAMVSAPSSTVNASASVKTSAGTTDPEEATRLLAEKRRLAREQREKEERERREQEELERQKREELAQRVAEERTTRREEESRRLEAEQAREKEEQLQRQAEERALREREEAERAQRQKEEEARVREEAERVRQEREKHFQREEQERLERKKRLEEIMKRTRRTEATDKKTSDQRNGDIAKGALTGGTEVSALPCTTNAPGNGKPVGSPHVVTSHQSKVTVESTPDLEKQPNENGVSVQNENFEEIINLPIGSKPSRLDVTNSESPEIPLNPILAFDDEGTLGPLPQVDGVQTQQTAEVI
Difference (log2), untreated vs GFP (GFP-14-3-3β): -0.1668

Difference (log2), PP1 vs untreated [1]: 1.303
B5: SLC43A3 (protein, UniProt Q8NBI5 1-491, looked up)
Equilibrative nucleobase …: MAGQGLPLHVATLLTGLLECLGFAGVLFGWPSLVFVFKNEDYFKDLCGPDAGPIGNATGQADCKAQDERFSLIFTLGSFMNNFMTFPTGYIFDRFKTTVARLIAIFFYTTATLIIAFTSAGSAVLLFLAMPMLTIGGILFLITNLQIGNLFGQHRSTIITLYNGAFDSSSAVFLIIKLLYEKGISLRASFIFISVCSTWHVARTFLLMPRGHIPYPLPPNYSYGLCPGNGTTKEEKETAEHENRELQSKEFLSAKEETPGAGQKQELRSFWSYAFSRRFAWHLVWLSVIQLWHYLFIGTLNSLLTNMAGGDMARVSTYTNAFAFTQFGVLCAPWNGLLMDRLKQKYQKEARKTGSSTLAVALCSTVPSLALTSLLCLGFALCASVPILPLQYLTFILQVISRSFLYGSNAAFLTLAFPSEHFGKLFGLVMALSAVVSLLQFPIFTLIKGSLQNDPFYVNVMFMLAILLTFFHPFLVYRECRTWKESPSAIA
Difference (log2), untreated vs GFP (GFP-14-3-3β): -0.216

Difference (log2), PP1 vs untreated [1]: 1.349
B6: RFC1 (protein, UniProt P35251 1-1148, looked up)
Replication factor C subunit 1: MDIRKFFGVIPSGKKLVSETVKKNEKTKSDEETLKAKKGIKEIKVNSSRKEDDFKQKQPSKKKRIIYDSDSESEETLQVKNAKKPPEKLPVSSKPGKISRQDPVTYISETDEEDDFMCKKAASKSKENGRSTNSHLGTSNMKKNEENTKTKNKPLSPIKLTPTSVLDYFGTGSVQRSNKKMVASKRKELSQNTDESGLNDEAIAKQLQLDEDAELERQLHEDEEFARTLAMLDEEPKTKKARKDTEAGETFSSVQANLSKAEKHKYPHKVKTAQVSDERKSYSPRKQSKYESSKESQQHSKSSADKIGEVSSPKASSKLAIMKRKEESSYKEIEPVASKRKENAIKLKGETKTPKKTKSSPAKKESVSPEDSEKKRTNYQAYRSYLNREGPKALGSKEIPKGAENCLEGLIFVITGVLESIERDEAKSLIERYGGKVTGNVSKKTNYLVMGRDSGQSKSDKAAALGTKIIDEDGLLNLIRTMPGKKSKYEIAVETEMKKESKLERTPQKNVQGKRKISPSKKESESKKSRPTSKRDSLAKTIKKETDVFWKSLDFKEQVAEETSGDSKARNLADDSSENKVENLLWVDKYKPTSLKTIIGQQGDQSCANKLLRWLRNWQKSSSEDKKHAAKFGKFSGKDDGSSFKAALLSGPPGVGKTTTASLVCQELGYSYVELNASDTRSKSSLKAIVAESLNNTSIKGFYSNGAASSVSTKHALIMDEVDGMAGNEDRGGIQELIGLIKHTKIPIICMCNDRNHPKIRSLVHYCFDLRFQRPRVEQIKGAMMSIAFKEGLKIPPPAMNEIILGANQDIRQVLHNLSMWCARSKALTYDQAKADSHRAKKDIKMGPFDVARKVFAAGEETAHMSLVDKSDLFFHDYSIAPLFVQENYIHVKPVAAGGDMKKHLMLLSRAADSICDGDLVDSQIRSKQNWSLLPAQAIYASVLPGELMRGYMTQFPTFPSWLGKHSSTGKHDRIVQDLALHMSLRTYSSKRTVNMDYLSLLRDALVQPLTSQGVDGVQDVVALMDTYYLMKEDFENIMEISSWGGKPSPFSKLDPKVKAAFTRAYNKEAHLTPYSLQAIKASRHSTSPSLDSEYNEELNEDDSQSDEKDQDAIETDAMIKKKTKSSKPSKPEKDKEPRKGKGKSSKK
Difference (log2), untreated vs GFP (GFP-14-3-3β): 0.4473
